Results from patent US20230192857A1.

Experiments:
[1] = target: JAK1-Y1034 phosphopeptide with an alanine substitution at the +3 position (UniProt P23458); assay: ITC
[2] = target: phosphopeptide corresponding to Tyr1034 within the JAK1 kinase domain activation loop (UniProt P23458); assay: ITC
[3] = target: JAK1 kinase domain (JH1) (Homo sapiens) (UniProt P23458); assay: cell-based or functional assay

With “human CIS lacking both the N-terminal region and the PEST motif (ΔNT/ΔPEST), trimeric complex with elongins B and C (from UniProt Q9NSE2 67-258; Q15370 1-118; Q15369 17-112)” the fold reduction of binding against the wild-type JAK1-Y1034 phosphopeptide [1] was 4 fold.

In the case of “human CIS lacking the N-terminal 34 residues (ΔN34), trimeric complex with elongins B and C (from UniProt Q9NSE2 35-258; Q15370 1-118; Q15369 17-112)”, the Kd [2] is reported as 2.2 to 10 µM.

Work on “hCIS-SH2-BC complex (recombinant trimeric complex of human GST-CIS-SH2 construct with Elongins B and C) (from UniProt Q9NSE2 66-258; Q15370 1-118; Q15369 17-112)” yielded an efficiency of JAK1 JH1 kinase inhibition relative to SOCS1 [3] of 100 fold lower and a fold selectivity of kinase inhibition, JAK1 against JAK2, JAK3 or TYK2 (JH1 domains) [3] greater than 20 fold.
